Where two headings read alike, the source gives them in different places.

In test [1] the target is T1, V5 peptide (Parainfluenza virus 5 (strain W3) …).
T1 chain: GKPIPNPLLGLDST
Put plainly: ITC.

For test [2], the target named is T1, V5 peptide. The experiment in a line: ITC. A general note: In ITC the heat of successive injections is recorded.

B1: NbV5 (VHH)
VHH: EVQLQASGGGFVQPGGSLRLSCAASGTTSFGDTMGWFRQAPGKEREFVSAISRQGDKHYYADSVKGRFTISRDNSKNTVYLQMNSLRAEDTATYYCAEWMNTRREFITPYWGQGTQVTVSS
Turning to B1, the Kd is ~218 nM with V5 peptide [1] and 574 nM with V5 peptide [2].

A word on the Kd: it is the concentration at which binding is half-saturated. A low value points to a tighter complex.

The record behind these values is article doi:10.1101/2023.02.05.527200 (bioRxiv, 2023).
